Results reported in paper doi:10.1101/2025.05.15.25327633.

Target: Platelet-factor 4 (Human CXCL4) (human)
Assay: cross-linking + AUC

In the case of “Platelet-factor 4 (Human CXCL4) (natural protein)”, the percent of PF4 present as tetramers is reported as 81.2% and the stoichiometry N is reported as 4.
